T1: DFNB31_3, Q9P202
T1 sequence (Q9P202 811-907, limits assumed, looked up): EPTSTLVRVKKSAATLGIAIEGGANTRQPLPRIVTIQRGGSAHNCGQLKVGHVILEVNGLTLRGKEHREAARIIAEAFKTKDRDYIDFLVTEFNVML

T2: APBA2_1, Q99767
T2 sequence (Q99767 563-664, limits assumed, looked up): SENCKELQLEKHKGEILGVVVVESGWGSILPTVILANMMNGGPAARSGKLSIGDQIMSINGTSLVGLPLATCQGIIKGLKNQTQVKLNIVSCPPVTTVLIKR

T3: LNX2_3, Q8N448
T3 sequence (Q8N448 463-564, limits assumed, looked up): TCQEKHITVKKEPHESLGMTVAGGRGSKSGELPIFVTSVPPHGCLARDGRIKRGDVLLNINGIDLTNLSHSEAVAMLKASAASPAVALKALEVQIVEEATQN

T4: APBA3_1, O96018
T4 sequence (O96018 389-490, limits assumed, looked up): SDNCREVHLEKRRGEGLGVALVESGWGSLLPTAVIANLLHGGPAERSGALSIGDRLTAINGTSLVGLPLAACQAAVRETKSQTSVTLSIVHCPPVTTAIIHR

T5: TJP3_3, O95049
T5 sequence (O95049 375-456, limits assumed, looked up): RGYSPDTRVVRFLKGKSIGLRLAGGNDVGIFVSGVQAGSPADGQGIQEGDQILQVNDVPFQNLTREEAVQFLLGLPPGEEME

T6: PDZD2_2, O15018
T6 sequence (O15018 329-429, limits assumed, looked up): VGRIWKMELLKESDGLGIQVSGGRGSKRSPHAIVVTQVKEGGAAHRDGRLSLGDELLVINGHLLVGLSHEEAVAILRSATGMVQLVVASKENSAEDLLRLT

T7: NHERF3_3, Q5T2W1
T7 sequence (Q5T2W1 238-333, limits assumed, looked up): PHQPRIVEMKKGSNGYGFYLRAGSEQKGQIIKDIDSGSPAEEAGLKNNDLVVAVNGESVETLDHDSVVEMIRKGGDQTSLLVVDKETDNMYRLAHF

T8: PDZD7_3, Q9H5P4
T8 sequence (Q9H5P4 857-944, limits assumed, looked up): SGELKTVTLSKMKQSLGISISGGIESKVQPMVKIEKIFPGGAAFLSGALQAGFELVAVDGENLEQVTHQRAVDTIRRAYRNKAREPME

T9: NHERF3_4, Q5T2W1
T9 sequence (Q5T2W1 373-468, limits assumed, looked up): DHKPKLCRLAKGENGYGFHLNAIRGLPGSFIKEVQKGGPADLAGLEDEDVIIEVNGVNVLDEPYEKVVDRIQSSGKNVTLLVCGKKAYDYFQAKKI

T10: APBA1_2, Q02410
T10 sequence (Q02410 742-832, limits assumed, looked up): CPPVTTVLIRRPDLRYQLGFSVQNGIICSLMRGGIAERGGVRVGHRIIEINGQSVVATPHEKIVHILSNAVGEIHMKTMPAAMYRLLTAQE

T11: HTRA3, P83110
T11 sequence (P83110 354-453, limits assumed, looked up): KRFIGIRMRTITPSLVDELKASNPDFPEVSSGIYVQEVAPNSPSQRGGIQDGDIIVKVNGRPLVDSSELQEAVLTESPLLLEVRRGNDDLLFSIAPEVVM

T12: DVL3, Q92997
T12 sequence (Q92997 244-331, limits assumed, looked up): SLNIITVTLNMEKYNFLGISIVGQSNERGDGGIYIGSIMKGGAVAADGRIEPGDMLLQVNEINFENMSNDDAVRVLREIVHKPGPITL

T13: GRIP1_3, Q9Y3R0
T13 sequence (Q9Y3R0 247-346, limits assumed, looked up): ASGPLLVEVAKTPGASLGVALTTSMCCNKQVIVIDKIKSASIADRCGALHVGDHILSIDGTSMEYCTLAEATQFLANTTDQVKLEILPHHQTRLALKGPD

T14: LRRC7, Q96NW7
T14 sequence (Q96NW7 1440-1537, limits assumed, looked up): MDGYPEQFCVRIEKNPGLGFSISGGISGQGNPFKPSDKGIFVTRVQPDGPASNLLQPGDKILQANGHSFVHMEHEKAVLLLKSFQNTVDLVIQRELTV


What was measured:
Assay in all cases: holdup assay
Parameters in all cases: key: below the threshold = too weak to quantify, mostly under pKd 3.1 to 4
Details in all cases: plain residues with an end cap or a label only (N-terminal biotin on a linker: ado-ado)
GRIP2_7, Q9C0E4 = biological target: GRIP2_7, Q9C0E4
GRIP2_7, Q9C0E4, sequence (Q9C0E4 934-1023): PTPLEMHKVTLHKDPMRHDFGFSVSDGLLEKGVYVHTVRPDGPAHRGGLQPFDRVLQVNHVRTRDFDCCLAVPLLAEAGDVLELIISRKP

FRMPD2_3, Q68DX3 = biological target: FRMPD2_3, Q68DX3
FRMPD2_3, Q68DX3, sequence (Q68DX3 1073-1166): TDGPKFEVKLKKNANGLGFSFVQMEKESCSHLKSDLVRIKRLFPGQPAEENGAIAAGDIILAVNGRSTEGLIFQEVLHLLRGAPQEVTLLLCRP

GIPC2, Q8TF65 = biological target: GIPC2, Q8TF65
GIPC2, Q8TF65, sequence (Q8TF65 112-203): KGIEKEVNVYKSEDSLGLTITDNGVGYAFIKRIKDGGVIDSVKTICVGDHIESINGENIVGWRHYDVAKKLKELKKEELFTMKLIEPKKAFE

MAST1, Q9Y2H9 = biological target: MAST1, Q9Y2H9
MAST1, Q9Y2H9, sequence (Q9Y2H9 962-1065): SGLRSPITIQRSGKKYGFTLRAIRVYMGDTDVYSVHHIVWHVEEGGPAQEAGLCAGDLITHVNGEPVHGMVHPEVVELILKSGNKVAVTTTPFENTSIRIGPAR

DFNB31_3, Q9P202 = biological target: T1, DFNB31_3, Q9P202
APBA2_1, Q99767 = biological target: T2, APBA2_1, Q99767
LNX2_3, Q8N448 = biological target: T3, LNX2_3, Q8N448
DLG2_2, Q15700 = biological target: DLG2_2, Q15700
DLG2_2, Q15700, sequence (Q15700 189-283): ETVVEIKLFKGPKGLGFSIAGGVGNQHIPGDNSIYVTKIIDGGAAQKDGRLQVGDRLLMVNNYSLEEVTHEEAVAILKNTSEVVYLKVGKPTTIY

Inadl_5, Q8NI35 = biological target: Inadl_5, Q8NI35
Inadl_5, Q8NI35, sequence (Q8NI35 673-780): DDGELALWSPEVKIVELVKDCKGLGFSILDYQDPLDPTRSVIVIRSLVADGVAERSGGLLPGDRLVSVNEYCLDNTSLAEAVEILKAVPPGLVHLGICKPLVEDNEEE

APBA3_1, O96018 = biological target: T4, APBA3_1, O96018
TJP1_3, Q07157 = biological target: TJP1_3, Q07157
TJP1_3, Q07157, sequence (Q07157 416-512): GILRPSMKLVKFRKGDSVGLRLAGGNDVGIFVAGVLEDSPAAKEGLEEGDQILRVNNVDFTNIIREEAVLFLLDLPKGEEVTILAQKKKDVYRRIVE

TJP3_3, O95049 = biological target: T5, TJP3_3, O95049
PDZD2_2, O15018 = biological target: T6, PDZD2_2, O15018
NHERF3_3, Q5T2W1 = biological target: T7, NHERF3_3, Q5T2W1
Inadl_9, Q8NI35 = biological target: Inadl_9, Q8NI35
Inadl_9, Q8NI35, sequence (Q8NI35 1530-1615): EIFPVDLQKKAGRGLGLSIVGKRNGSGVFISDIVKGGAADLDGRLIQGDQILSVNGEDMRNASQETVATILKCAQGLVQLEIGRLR

PDZD7_3, Q9H5P4 = biological target: T8, PDZD7_3, Q9H5P4
NHERF3_4, Q5T2W1 = biological target: T9, NHERF3_4, Q5T2W1
IL16_3, Q14005 = biological target: IL16_3, Q14005
IL16_3, Q14005, sequence (Q14005 1107-1207): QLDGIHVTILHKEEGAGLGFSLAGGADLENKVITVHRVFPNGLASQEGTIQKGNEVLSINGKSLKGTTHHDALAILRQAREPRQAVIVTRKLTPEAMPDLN

APBA1_2, Q02410 = biological target: T10, APBA1_2, Q02410
LNX1_1, Q8TBB1 = biological target: LNX1_1, Q8TBB1
LNX1_1, Q8TBB1, sequence (Q8TBB1 261-371): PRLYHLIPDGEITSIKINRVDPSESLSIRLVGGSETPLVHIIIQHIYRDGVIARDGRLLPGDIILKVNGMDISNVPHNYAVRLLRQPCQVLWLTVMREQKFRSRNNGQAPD

HTRA3, P83110 = biological target: T11, HTRA3, P83110
DVL3, Q92997 = biological target: T12, DVL3, Q92997
GRIP1_3, Q9Y3R0 = biological target: T13, GRIP1_3, Q9Y3R0
LRRC7, Q96NW7 = biological target: T14, LRRC7, Q96NW7

Row | Binder | pKd (GRIP2_7, Q9C0E4) | pKd (FRMPD2_3, Q68DX3) | pKd (GIPC2, Q8TF65) | pKd (MAST1, Q9Y2H9) | pKd (DFNB31_3, Q9P202) | pKd (APBA2_1, Q99767) | pKd (LNX2_3, Q8N448) | pKd (DLG2_2, Q15700) | pKd (Inadl_5, Q8NI35) | pKd (APBA3_1, O96018) | pKd (TJP1_3, Q07157) | pKd (TJP3_3, O95049) | pKd (PDZD2_2, O15018) | pKd (NHERF3_3, Q5T2W1) | pKd (Inadl_9, Q8NI35) | pKd (PDZD7_3, Q9H5P4) | pKd (NHERF3_4, Q5T2W1) | pKd (IL16_3, Q14005) | pKd (APBA1_2, Q02410) | pKd (LNX1_1, Q8TBB1) | further results
1 | VKPQVSESKL [ACOT8, O14734] | below the threshold | below the threshold | below the threshold | 4.77 | 3.71 | below the threshold | below the threshold | below the threshold | below the threshold | below the threshold | below the threshold | below the threshold | below the threshold | below the threshold | below the threshold | 4.15 | below the threshold | below the threshold | below the threshold | below the threshold | pKd (HTRA3, P83110): below the threshold; pKd (DVL3, Q92997): below the threshold; pKd (GRIP1_3, Q9Y3R0): below the threshold; pKd (LRRC7, Q96NW7): below the threshold
2 | EALLQMESVA [CAVIN3, Q969G5] | below the threshold | below the threshold | 3.97 | 3.86 | below the threshold | below the threshold | below the threshold | below the threshold | below the threshold | below the threshold | below the threshold | below the threshold | below the threshold | below the threshold | below the threshold | below the threshold | below the threshold | below the threshold | 3.5 | 3.81 | pKd (HTRA3, P83110): below the threshold; pKd (DVL3, Q92997): below the threshold; pKd (GRIP1_3, Q9Y3R0): below the threshold; pKd (LRRC7, Q96NW7): below the threshold
3 | FNSYSLTGYV [CLDN2, P57739] | below the threshold | 4.28 | below the threshold | 3.94 | below the threshold | below the threshold | below the threshold | below the threshold | 3.6 | below the threshold | 3.63 | 4.31 | 4.65 | below the threshold | below the threshold | below the threshold | below the threshold | below the threshold | 4 | 3.94 | pKd (HTRA3, P83110): 4.6; pKd (DVL3, Q92997): 3.81; pKd (GRIP1_3, Q9Y3R0): below the threshold; pKd (LRRC7, Q96NW7): below the threshold

Now from value to binder, other results behind:

Row | pKd (GRIP2_7, Q9C0E4) | pKd (FRMPD2_3, Q68DX3) | pKd (GIPC2, Q8TF65) | pKd (MAST1, Q9Y2H9) | pKd (DFNB31_3, Q9P202) | pKd (APBA2_1, Q99767) | pKd (LNX2_3, Q8N448) | pKd (DLG2_2, Q15700) | pKd (Inadl_5, Q8NI35) | pKd (APBA3_1, O96018) | pKd (TJP1_3, Q07157) | pKd (TJP3_3, O95049) | pKd (PDZD2_2, O15018) | pKd (NHERF3_3, Q5T2W1) | pKd (Inadl_9, Q8NI35) | pKd (PDZD7_3, Q9H5P4) | pKd (NHERF3_4, Q5T2W1) | pKd (IL16_3, Q14005) | pKd (APBA1_2, Q02410) | pKd (LNX1_1, Q8TBB1) | Binder | further results
4 | below the threshold | 3.51 | 3.8 | 3.93 | below the threshold | 3.66 | 3.54 | below the threshold | below the threshold | below the threshold | below the threshold | 3.49 | 4.43 | below the threshold | below the threshold | 3.56 | below the threshold | 3.5 | 3.65 | 3.83 | PRAEAEDSFL [PDGFRB, P09619] | pKd (HTRA3, P83110): below the threshold; pKd (DVL3, Q92997): below the threshold; pKd (GRIP1_3, Q9Y3R0): below the threshold; pKd (LRRC7, Q96NW7): 3.92
5 | below the threshold | below the threshold | below the threshold | 3.95 | 4.02 | below the threshold | below the threshold | below the threshold | below the threshold | below the threshold | below the threshold | below the threshold | below the threshold | below the threshold | below the threshold | below the threshold | 4.74 | below the threshold | below the threshold | below the threshold | EKKTLIGIKL [GOT1L1, Q8NHS2] | pKd (HTRA3, P83110): below the threshold; pKd (DVL3, Q92997): below the threshold; pKd (GRIP1_3, Q9Y3R0): below the threshold; pKd (LRRC7, Q96NW7): below the threshold
6 | below the threshold | below the threshold | below the threshold | 3.63 | below the threshold | below the threshold | below the threshold | below the threshold | below the threshold | below the threshold | below the threshold | below the threshold | below the threshold | below the threshold | below the threshold | below the threshold | below the threshold | below the threshold | below the threshold | below the threshold | IKAIVDLTGL [TRAF2, Q12933] | pKd (HTRA3, P83110): below the threshold; pKd (DVL3, Q92997): below the threshold; pKd (GRIP1_3, Q9Y3R0): below the threshold; pKd (LRRC7, Q96NW7): below the threshold
